Data reported in US20180030127A1 (APRILBIO, published 2018).

B1: SA139 (Fab, V domains shown)
VH: EVQLLQSGAEVKEPGASVKVSCKASGYTFSSYGISWVRQAPGQGLEWVGRINTYNGNTGYAQRLQGRVTMTTDTSTSIAYMEVRSLRSDDTAVYYCARLGHCQRGICSDALDTWGQGTMVTVSS
VL: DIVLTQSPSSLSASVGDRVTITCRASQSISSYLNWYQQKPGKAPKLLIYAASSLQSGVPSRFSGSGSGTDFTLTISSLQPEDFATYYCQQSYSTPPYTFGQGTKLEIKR
notes: Human Fab (VH+CH1, VL+CLk); also called SA139 Fab
B2: SL18 (Fab, V domains shown)
VH: EVQLVQSGTEVKKPGESLKISCKISGYSFTAYWIAWVRQMPGKGLEWMGMIWPPDADARYSPSFQGQVTFSVDKSISTAYLQWHSLKTSDTAVYYCARLYSGSYSPWGQGTLVTVSS
VL: ELVLTQSPGTLSLSPGERATLSCRASQSIFNYVAWYQQKPGQAPRLLIYDASNRATGIPARFSGSGSGTDFTLTISSLEPEDFAVYYCQQRSKWPPTWTFGQGTRVDIKR
notes: Human Fab (VH+CH1, VL+CLk); tested on phage and as soluble Fab purified from E. coli; also called SL18 Fab
B3: SA140 (Fab, V domains shown)
VH: QVQLVQSGGGVVQTGGSLRLSCAASGFTFRNYGIHWVRQAPGKGLEWVASISYDGSNKYYADSVKGRFTISRDNSRNTVHVQMDSLRGGDTAVYYCARDVHYYGSGSYYNAFDIWGQGTLVTVSS
VL: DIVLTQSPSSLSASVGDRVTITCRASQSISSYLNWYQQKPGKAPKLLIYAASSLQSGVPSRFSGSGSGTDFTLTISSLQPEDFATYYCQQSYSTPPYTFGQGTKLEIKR
notes: also called SA140 Fab
B4: SL310 (Fab, V domains shown)
VH: QVQLVQSGGGPVKPGGSLRLSCAASGFMFRAYSMNWVRQAPGKGLEWVSSISSSGRYIHYADSVKGRFTISRDNAKNSLYLQMNSLRAEDTAVYYCARETVMAGKALDYWGQGTLVTVSS
VL: ELVLTQSPGTLSLSPGERATLSCRASQSVSSSSLAWYQQKPGQAPRLLIYGASSRATGIPDRFSGSGSGTDFTLTISSLQPEDAATYYCQKYSSYPLTFGQGTKLEIKR
notes: Human Fab (VH+CH1, VL+CLk); tested on phage and as soluble Fab purified from E. coli; also called SL310 Fab
B5: SL301 (Fab, V domains shown)
VH: B4 VH
VL: ELVLTQSPGTLSLSPGERATLSCRASETVSSRQLAWYQQKPGQAPRLLIYGASSRATGIPDRFSGSGSGTDFTLTISRLEPEDSAVFYCQQYGSSPRTFGGGTKLEIKR
notes: Human Fab (VH+CH1, VL+CLk); tested on phage and as soluble Fab purified from E. coli; also called SL301 Fab
B6: SA141 (Fab, V domains shown)
VH: QVQLVQSGGGLVQPGGSLRLSCAASGFTFSSYAMSWVRQAPGKGLEWLSVISHDGGFQYYADSVKGRFTVSRDNSKNTLYLQMNSLRAEDTAVYYCARAGWLRQYGMDVWGQGTLVTVSS
VL: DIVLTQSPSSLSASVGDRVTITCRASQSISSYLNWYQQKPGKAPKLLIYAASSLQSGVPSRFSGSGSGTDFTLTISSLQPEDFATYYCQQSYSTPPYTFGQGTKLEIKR
notes: also called SA141 Fab

How the values were obtained:
[1] = molecular target: T1, human serum albumin (human, UniProt P02768 25-609); assay: monoclonal phage ELISA at pH 7.4: Fab on phage, about 10^8 CFU/well, on antigen coated at 5 ug/ml; anti-human kappa-HRPO, TMB, A450
T1 construct: Bought protein; also called HSA; human SA
Description: (§1) For the monoclonal phage ELISA, the recombinant phage was obtained from positive E. coli clones by phage rescue, and ˜10⁸ CFU/well were added to MaxiSorb ELISA plates (Nunc, Roskilde, Denmark) that were coated with 5 μg/ml HSA, RSA, MSA or BSA. The phage was allowed to bind to the antigens either at pH 6 or at pH 7.4 for 1 h at 37° C. A goat anti-human kappa L Ab-conjugated with HRPO (Sigma-Aldrich) was used as a secondary antibody. The binding signals were visualized with a TMB substrate (BD Science, San Jose, Calif., USA), and the absorbance at 450 nm was measured using an ELISA reader (Bio-Rad, Hercules, Calif., USA). The data represent the average of three experiments standard deviation. For the conventional ELISA, the various antigens [human SA, rat SA, mouse SA, monkey SA (Alpha diagnositic Intl., San Antonio, Tex., USA), canine SA (CUSABIO, Wuhan, Hubei, China). rabbit SA (Sigma-Aldrich), epidermal growth factor receptor (EGFR) (R&D systems, Minneapolis, Minn., USA), epithelial cell adhesion molecule (EpCAM) (R&D systems), IL-15 receptor a (IL-15Ra) (R&D systems), IL-10 (eBioscience, San Diego, Calif., USA), CD16a (R&D systems), c-MET (Sinobiological, Beijing, China)] at 5 μg/ml concentrations were immobilized on the microtiter plates, and the Fab molecules were allowed to bind to the antigens, and detected as above. To determine the concentration of soluble Fab or Fab-hGH fusion proteins, a sandwich ELISA was performed using a mouse anti-human IgG Fd mAb (AprilBio) as a capturing Ab and the goat anti-human kappa L chain pAb-HRPO conjugated (Sigma-Aldrich) as a detecting antibody. The human Fab fragment (Bethyl, Montgomery, Tex., USA) with a known concentration was used to draw the standard curve. For detecting the hGH domain, T-20, a goat pAb specific for the C-terminus of the hGH (Santacruz Biotechnology, Dallas, Tex., USA) and NYThGH, a mouse mAb specific for full-length hGH (Prospec, East Brunswick, N.J., USA) were used followed by a rabbit anti-goat IgG pAb-HRPO conjugated (Sigma-Aldrich) or a goat anti-mouse IgG pAb-HRPO conjugated (Sigma-Aldrich), respectively as a secondary antibody. A goat anti-human GCSF pAb (R&D Systems) was used to detecting the G-CSF domain, and a rabbit anti-human IFN-β pAb (PEPROTECH, Rocky Hill, USA) was used to detect the IFN-β domain.

[2] = molecular target: T2, mouse serum albumin (mouse, UniProt P07724 25-608); assay: monoclonal phage ELISA at pH 7.4, antigen coated at 5 ug/ml, anti-human kappa-HRPO, A450
T2 construct: Bought protein; also called MSA; mouse SA
Description: as §1

[3] = molecular target: T3, rat serum albumin (rat, UniProt P02770 25-608); assay: as above
T3 construct: Bought protein; also called RSA; rat SA
Description: as §1

[4] = molecular target: T4, bovine serum albumin (bovine, UniProt P02769 25-607); assay: as above
T4 construct: also called BSA; bovine SA
Description: as §1

[5] = molecular target: T4, bovine serum albumin; assay: monoclonal phage ELISA at pH 6, antigen coated at 5 ug/ml, anti-human kappa-HRPO, A450
Description: as §1

[6] = molecular target: T2, mouse serum albumin; assay: monoclonal phage ELISA at pH 7.4: Fab on phage, about 10^8 CFU/well, on antigen coated at 5 ug/ml; anti-human kappa-HRPO, TMB, A450
Description: as §1

[7] = molecular target: T3, rat serum albumin; assay: as above
Description: as §1

[8] = molecular target: T2, mouse serum albumin; assay: monoclonal phage ELISA at pH 6: Fab on phage, about 10^8 CFU/well, on antigen coated at 5 ug/ml; anti-human kappa-HRPO, TMB, A450
Description: (§2) For the monoclonal phage ELISA, the recombinant phage was obtained from positive E. coli clones by phage rescue, and ˜10⁸ CFU/well were added to MaxiSorb ELISA plates (Nunc, Roskilde, Denmark) that were coated with 5 μg/ml HSA, RSA, MSA or BSA. The phage was allowed to bind to the antigens either at pH 6 or at pH 7.4 for 1 h at 37° C. A goat anti-human kappa L Ab-conjugated with HRPO (Sigma-Aldrich) was used as a secondary antibody. The binding signals were visualized with a TMB substrate (BD Science, San Jose, Calif., USA), and the absorbance at 450 nm was measured using an ELISA reader (Bio-Rad, Hercules, Calif., USA). The data represent the average of three experiments standard deviation. For the conventional ELISA, the various antigens [human SA, rat SA, mouse SA, monkey SA (Alpha diagnositic Intl., San Antonio, Tex., USA), canine SA (CUSABIO, Wuhan, Hubei, China). rabbit SA (Sigma-Aldrich), epidermal growth factor receptor (EGFR) (R&D systems, Minneapolis, Minn., USA), epithelial cell adhesion molecule (EpCAM) (R&D systems), IL-15 receptor a (IL-15Ra) (R&D systems), IL-10 (eBioscience, San Diego, Calif., USA), CD16a (R&D systems), c-MET (Sinobiological, Beijing, China)] at 5 μg/ml concentrations were immobilized on the microtiter plates, and the Fab molecules were allowed to bind to the antigens, and detected as above. […]

[9] = molecular target: T1, human serum albumin; assay: ELISA at pH 6.0: purified soluble Fab titrated on antigen coated at 5 ug/ml; anti-human kappa L chain pAb-HRPO, TMB, A450
Description: as §2

[10] = molecular target: T3, rat serum albumin; assay: as above
Description: as §2

[11] = molecular target: T1, human serum albumin; assay: ELISA at pH 7.4: purified soluble Fab titrated on antigen coated at 5 ug/ml; anti-human kappa L chain pAb-HRPO, TMB, A450
Description: as §2

[12] = molecular target: T3, rat serum albumin; assay: as above
Description: as §2

[13] = molecular target: T2, mouse serum albumin; assay: monoclonal phage ELISA at pH 6, antigen coated at 5 ug/ml, anti-human kappa-HRPO, A450
Description: as §1

[14] = molecular target: T3, rat serum albumin; assay: as above
Description: as §1

T3 sequence (P02770 25-608 limits assumed): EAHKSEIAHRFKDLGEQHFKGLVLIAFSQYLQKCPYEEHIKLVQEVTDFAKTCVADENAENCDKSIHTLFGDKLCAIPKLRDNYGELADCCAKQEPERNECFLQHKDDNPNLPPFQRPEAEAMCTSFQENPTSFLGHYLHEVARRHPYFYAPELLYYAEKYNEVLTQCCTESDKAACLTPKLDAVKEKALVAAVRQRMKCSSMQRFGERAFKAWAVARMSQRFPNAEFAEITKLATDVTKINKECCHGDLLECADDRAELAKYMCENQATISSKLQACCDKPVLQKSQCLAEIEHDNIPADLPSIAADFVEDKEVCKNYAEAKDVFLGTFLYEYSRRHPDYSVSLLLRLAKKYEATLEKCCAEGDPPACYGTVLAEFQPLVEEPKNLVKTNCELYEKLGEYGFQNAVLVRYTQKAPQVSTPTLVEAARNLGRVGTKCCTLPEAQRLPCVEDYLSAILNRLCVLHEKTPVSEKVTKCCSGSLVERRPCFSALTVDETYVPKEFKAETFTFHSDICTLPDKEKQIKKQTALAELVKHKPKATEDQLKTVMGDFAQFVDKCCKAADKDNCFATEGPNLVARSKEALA
T2 sequence (P07724 25-608 limits assumed): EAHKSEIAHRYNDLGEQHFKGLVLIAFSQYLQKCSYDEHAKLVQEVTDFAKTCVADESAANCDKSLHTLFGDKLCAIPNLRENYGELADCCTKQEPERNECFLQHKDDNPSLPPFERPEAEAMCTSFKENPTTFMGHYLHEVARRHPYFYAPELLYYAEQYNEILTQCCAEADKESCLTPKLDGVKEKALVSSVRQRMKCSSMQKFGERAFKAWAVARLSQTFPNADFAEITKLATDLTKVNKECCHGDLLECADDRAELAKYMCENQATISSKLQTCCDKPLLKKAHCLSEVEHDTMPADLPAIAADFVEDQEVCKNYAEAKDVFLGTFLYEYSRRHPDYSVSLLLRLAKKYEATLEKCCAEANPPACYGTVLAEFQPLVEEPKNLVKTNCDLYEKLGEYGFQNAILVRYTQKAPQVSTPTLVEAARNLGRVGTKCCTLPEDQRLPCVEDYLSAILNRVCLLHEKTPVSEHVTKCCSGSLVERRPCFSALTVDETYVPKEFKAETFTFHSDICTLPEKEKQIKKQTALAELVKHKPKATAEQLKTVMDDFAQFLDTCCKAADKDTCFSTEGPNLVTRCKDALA
T4 sequence (P02769 25-607 limits assumed): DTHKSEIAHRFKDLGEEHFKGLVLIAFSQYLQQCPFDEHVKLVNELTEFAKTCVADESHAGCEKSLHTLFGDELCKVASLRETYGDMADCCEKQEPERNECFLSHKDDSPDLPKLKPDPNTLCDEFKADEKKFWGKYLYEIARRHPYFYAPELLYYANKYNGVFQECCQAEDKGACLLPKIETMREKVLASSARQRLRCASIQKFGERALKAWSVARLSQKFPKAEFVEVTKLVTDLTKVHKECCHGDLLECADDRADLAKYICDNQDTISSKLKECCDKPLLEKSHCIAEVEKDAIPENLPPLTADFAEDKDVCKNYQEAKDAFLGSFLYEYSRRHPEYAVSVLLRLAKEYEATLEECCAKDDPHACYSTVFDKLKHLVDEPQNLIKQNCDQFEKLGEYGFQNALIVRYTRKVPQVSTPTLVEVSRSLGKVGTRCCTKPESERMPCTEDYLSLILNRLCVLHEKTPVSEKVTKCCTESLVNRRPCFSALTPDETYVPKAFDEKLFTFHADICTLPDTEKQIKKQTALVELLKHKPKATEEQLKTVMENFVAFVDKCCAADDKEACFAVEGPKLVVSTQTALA

| Binder | binding result [1] | binding result [2] | binding result [3] | binding result [5] | binding result [7] | also measured |
| --- | --- | --- | --- | --- | --- | --- |
| B1 | binds | no binding | no binding | – | – | binding result [4]: no binding |
| B2 | binds | – | – | no binding | binds | binding result [6]: binds |
| B3 | – | no binding | no binding | no binding | – | – |
| B4 | – | – | – | no binding | – | binding result [8]: binds; EC50 (read off the curve) [9]: ~0.1 µg/mL; EC50 (read off the curve) [10]: ~0.6 µg/mL; EC50 (read off the curve) [11]: ~0.3 µg/mL; EC50 (read off the curve) [12]: ~0.2 µg/mL |
| B5 | binds | – | – | no binding | binds | – |
| B6 | binds | – | – | no binding | – | binding result [13]: no binding; binding result [14]: no binding |
